Test results as given in patent publication US11161884B2 (SAVID THERAPEUTICS INC., priority 2014, dated 2021).

Columns and labels:
[1] = Immunogenicity testing, antibody in serum analyzed by SPR; format: in vivo, crab-eating monkey (Macaca fascicularis); conditions: 1 mg purified protein administered three times (Day 0, 21, 42); four monkeys
Procedure: Immunogenicity testing was conducted using four crab-eating monkeys. One milligram of the purified protein was administered three times. Before administration, blood was collected for preparing a negative control serum, followed by three times of administration of 1 mg each of purified protein. More specifically, letting the first day of administration of Day 0, the second administration fell on Day 21, and the third administration fell on Day 42. For V2122, blood was collected on Days 7, 14, 28 and 35 to prepare serum samples, and for the other, blood was collected on Days 7, 14, 28, 35, 49 and 56 to prepare serum samples.
Antibody against V2122 in the serum samples was analyzed by surface plasmon resonance (SPR). More specifically, Biacore T200 (GE Healthcare BioScience Corp.) was used as a measuring instrument, which was operated in the mode using immunogenicity package. The sensor chip was CM5. As instructed by the manual, V2122 protein (10 μg/mL) was immobilized on the CM5 sensor chip using an amine coupling kit. Serum was diluted ten-fold with a running buffer (HBS-EP, GE Healthcare BioScience Corp.) for the interaction analysis. More specifically, the serum diluted ten-fold was loaded into the running buffer at a flow rate of 10 μL/min for 5 minutes. The obtained sensorgram was analyzed using an analytical software named Biacore T200 Evaluation Software.

[2] = SPR interaction of streptavidin mutants with biotin (Comparative Example 1); format: binding; conditions: biotin 1.8-1800 nM; protein immobilized via His-Tag
Procedure: (§1) More specifically, using Biacore T200 (GE Healthcare BioScience Corp.) as a measuring instrument, and Sensor Chip NTA (GE Healthcare BioScience Corp.) as a sensor chip, the protein was immobilized on the sensor chip by way of His-Tag having been fused to the core protein. The running buffer was prepared using HBS-P(+), as described in the manual. A dilution series of Compound was prepared by using the running buffer in seven steps of 1.8 nM, 9 nM, 18 nM, 90 nM, 180 nM, 900 nM and 1800 nM, to obtain data.

[3] = SPR interaction of streptavidin mutants with Compound C (Comparative Example 2); format: binding; conditions: Compound C 1.8-1800 nM; protein immobilized via His-Tag
Text: as §1, with “Using the purified two […] core streptavidin mutants (cSA-Y43A, cSA-S45A) described above, and purified V2122 protein, interaction with Compound C was investigated by surface plasmon resonance (SPR). More” for “More”

[4] = molecular target: T1, Pro-EPR-mFc (extracellular domain of epiregulin fused with murine Fc region) (Homo sapiens, UniProt O14944); experiment: SPR antigen binding potential (Biacore T200); conditions: for Kd: SPR kinetics assay, Pro-EPR-mFc captured on CM5, read-out: affinity to the antigen after FITC labeling
T1 construct: made in house; host or cells: Expi293F cells, pcDNA3.4 vector
Text: Next, in order to confirm whether the labeling reduced the binding potential or not, the antigen binding potential of anti-epiregulin scFv-V2122-FITC was confirmed by SPR (Biacore T200). More specifically, protein (Pro-EPR-mFc) obtained by fusing the extracellular domain of epiregulin which functions as a ligand with murine Fe region is captured on the sensor chip CM5 having anti-Murine IgG antibody immobilized thereon, and then eluted for kinetics assay with an analyte composed of a two-fold dilution series prepared by diluting a 20 nM anti-epiregulin scFv-V2122-FITC solution into nine steps (FIG. 14). […] Also epiregulin IgG and anti-epiregulin scFv protein were investigated in the binding test in the same way as described above, using a two-fold dilution series prepared by diluting a 300 nM solution into nine steps (FIG. 14). Data was analyzed using Biacore evaluation software.

[5] = tested on: DLD1 cells; experiment: Cell staining and analysis of internalization; format: cell-based, human; conditions: for staining of the surface of the cell membrane: DLD1, 25 nM, 50 nM and 100 nM
Procedure: Human colorectal cancer-derived DLD1 cells, used for cell staining, were cultured in a complete medium RPNI1640 (containing 10% FBS), and seeded in uClear 96-well plate (Greiner) in a density of 1×10^4 cells/well, two days before the assay. In the cell staining, first the medium was replaced with a complete medium added with Hoechst 33342 so as to adjust the concentration to 1 μM, and 15 minutes after, each of anti-epiregulin scFv-V2122-FITC, epiregulin IgG-FITC and anti-epiregulin scFv-FITC was added to the individual wells so as to adjust the concentration to 25 nM, 50 nM and 100 nM.
Binding of antibody to the cell surface, and internalization were analyzed using IN Cell Analyzer 6000 (GE Healthcare BioScience Corp.), and recorded by time lapse imaging at 5 minute intervals.

[6] = tested on: DLD1 cells having epiregulin expressed; experiment: FACS analysis of cell surface binding potential; format: cell-based, human; conditions: 0, 0.5, 5, 50 nM, on ice 30 minutes
Procedure: Cell surface binding potential was determined by FACS, using labeled antibodies that are anti-epiregulin scFv-V2122-FITC, epiregulin IgG-FITC and anti-epiregulin scFv-FITC. More specifically, dilute solutions of the labeled antibodies having concentrations of 0 nM, 0.5 nM, 5 nM and 50 nM were allowed to react on ice for 30 minutes with DLD1 cells (1×10^6 cells/mL, […]) having epiregulin expressed therein, and then fluorescence was measured using flow cytometer guava easyCyte 5. The measurement followed the usage and dosage instructions given in the manual of the instrument.

[7] = tested on: DLD1 tumor; experiment: In vivo imaging, DLD1 heterotransplantation model; parameters: species or system nude mice; conditions: 25, 50, 100 μg intravenously, pre-labeled with Psyche F-IRDye 800; imaging 2, 24, 48 hours
Procedure: The thus purified anti-epiregulin scFv-V2122 was mixed with Psyche F-IRDye 800 (Compound 44 in Example) dissolved in DMSO (final concentration was ten-fold molar concentration), and the mixture was incubated on ice for 10 minutes. The buffer was then replaced with Japanese Pharmacopoeia physiological saline (Otsuka Pharmaceutical Co., Ltd.) using Zeba Spin Desalting Column (Thermo Fisher Scientific Inc.) and was stored under cooling. Epiregulin IgG was labeled using ICG Labeling Kit-NH2 (Dojindo Laboratories).
Suspension liquid of human colorectal cancer-derived DLD1 cell and Matrigel Matrix (Corning) were mixed in a ratio of 1:1 (5×10^6 cells/0.1 mL), and 0.1 mL of the mixed liquid was administered subcutaneously in the left side of 5 to 6-week-old female nude mice (Sankyo Labo Service Corporation, Inc.). The mice were bred for several weeks to produce tumor. One week before imaging, the feed was switched to a low fluorescence feed (iVid #1, Oriental Yeast Co., Ltd.) and the breeding was continued. […]
Anti-epiregulin scFv-V2122 antibody (25 μg, 50 μg, 100 μg) preliminarily labeled with fluorescence by allowing it to react with Psyche F-IRDye 800 (Compound 44 in Example), or fluorescent-labeled epiregulin IgG (50 μg) was intravenously administered to nude mice having established DLD1 tumor. […]

T1 sequence (O14944 with tags, fused parts or gaps): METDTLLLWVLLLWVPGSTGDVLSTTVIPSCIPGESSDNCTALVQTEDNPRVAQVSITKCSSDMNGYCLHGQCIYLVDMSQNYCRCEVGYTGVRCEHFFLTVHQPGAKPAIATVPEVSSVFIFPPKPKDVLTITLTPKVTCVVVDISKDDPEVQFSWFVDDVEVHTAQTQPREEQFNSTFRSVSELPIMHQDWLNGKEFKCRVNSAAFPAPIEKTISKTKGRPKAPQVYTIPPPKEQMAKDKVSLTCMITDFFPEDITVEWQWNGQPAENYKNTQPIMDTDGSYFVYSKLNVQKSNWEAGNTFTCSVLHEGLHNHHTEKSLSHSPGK

B1: V2122: glycine mutant (N49G) of V212 streptavidin mutant; amino acid sequence SEQ ID NO: 4 (protein)
chain: AEAGITGTWSDQLGDTFIVTAGADGALTGTYENAVGGAESRYVLTGRYDSAPATDGSGTALGWTVAWKNNSKNAHSATTWSGQYVGGADAKINTQWLLTSGTTNANAWKSTLVGHDTFTKVKPSAAS
[1]
  immunogenicity: low as compared with the immunogenicity of the wild-type streptavidin and LISA314
[2]
  interaction with biotin (sensorgram): absence of specific binding
[3]
  interaction with Compound C (sensorgram): specific binding showing only an extremely slow dissociation

B2: anti-epiregulin scFv-V2122-FITC: FITC-labeled product of purified anti-epiregulin scFv-V2122 (protein)
scFv: QVQLQQSGAEVKKPGASVKVSCKASGFNIKDTYMHWVRQAPEQGLEWMGRIDPLNDKTKYDPKFQGRVTITADTSTNTAYLELSSLTSEDTAVYYCARGGGDPVFVYWGQGTLVTVSASSGGGGSGGGGSGGGGSGGGGSGGDIQMTQSPSSLSASVGDRVTITCKASQDINKYLAWYQHKPGQAPRLLIHYTSTLHPGIPSRFSGSGSGTDFTFSISSLQPEDIATYYCLQYDNLRTFGGGTKVEIKRTSGGGGSGGGGAEAGITGTWSDQLGDTFIVTAGADGALTGTYENAVGGAESRYVLTGRYDSAPATDGSGTALGWTVAWKNNSKNAHSATTWSGQYVGGADAKINTQWLLTSGTTNANAWKSTLVGHDTFTKVKPSAASHHHHHH
[4]
  affinity relative to epiregulin IgG-FITC and anti-epiregulin scFv-FITC: 100 to 1000 times
  Kd: 0.00023 µM
[5]; DLD1
  time at which internalization began to be observed after addition of antibody: approximately 10 minutes
[5]
  staining of the surface of the cell membrane: staining of the surface of the cell membrane was observed
[5]; DLD1, sixty-five minutes after addition
  migration of fluorescence into the cytoplasm: almost entire part of fluorescence was found to migrate into the cytoplasm
[5]; DLD1, time lapse imaging at 5 minute intervals
  internalization: distinct internalization was observed
[6]
  cell surface binding potential by FACS: equivalent levels of binding potential

B3: anti-epiregulin scFv-FITC: FITC-labeled anti-epiregulin scFv protein (SEQ ID NO: 22) (protein)
scFv: MKYLLPTAAAGLLLLAAQPAMAQVQLQQSGAEVKKPGASVKVSCKASGFNIKDTYMHWVRQAPEQGLEWMGRIDPLNDKTKYDPKFQGRVTITADTSTNTAYLELSSLTSEDTAVYYCARGGGDPVFVYWGQGTLVTVSASSGGGGSGGGGSGGGGSGGGGSGGDIQMTQSPSSLSASVGDRVTITCKASQDINKYLAWYQHKPGQAPRLLIHYTSTLHPGIPSRFSGSGSGTDFTFSISSLQPEDIATYYCLQYDNLRTFGGGTKVEIKRTSHHHHHH
modifications: FITC label
[4]
  Kd: 0.12 µM
[5]
  staining of the surface of the cell membrane: staining of the surface of the cell membrane was observed
[6]
  cell surface binding potential by FACS: level of binding potential lower than those shown by the former two

B4: anti-epiregulin scFv-V2122: fusion protein formed by anti-epiregulin scFv and V2122; SEQ ID NO: 30 (protein)
chain: MKYLLPTAAAGLLLLAAQPAMAQVQLQQSGAEVKKPGASVKVSCKASGFNIKDTYMHWVRQAPEQGLEWMGRIDPLNDKTKYDPKFQGRVTITADTSTNTAYLELSSLTSEDTAVYYCARGGGDPVFVYWGQGTLVTVSASSGGGGSGGGGSGGGGSGGGGSGGDIQMTQSPSSLSASVGDRVTITCKASQDINKYLAWYQHKPGQAPRLLIHYTSTLHPGIPSRFSGSGSGTDFTFSISSLQPEDIATYYCLQYDNLRTFGGGTKVEIKRTSGGGGSGGGGAEAGITGTWSDQLGDTFIVTAGADGALTGTYENAVGGAESRYVLTGRYDSAPATDGSGTALGWTVAWKNNSKNAHSATTWSGQYVGGADAKINTQWLLTSGTTNANAWKSTLVGHDTFTKVKPSAASHHHHHH
[7]
  accumulation in tumor: accumulate in the tumor of the model mice earlier (2 hours after administration) than the labeled IgG
